Laboratory results published in US20140179896A1 (published 2014).

Target: T1, human vascular endothelial growth factor receptor-2 Fc chimera (KDR-Fc) (human, UniProt P35968 20-764)
T1 construct: range 1-764; purchased from R&D Systems; also called hKDR; human VEGF-R2-Fc; not shown: human IgG1 Fc
Experiment: radioactive equilibrium binding, 1 nM KDR-Fc
Procedure, shortened: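 ³⁵S-Met-labeled binder protein, made by reticulocyte-lysate translation and Flag-purified, held at 0.2 or 0.5 nM with receptor-Fc (0–200 nM) for 1 h at 30° C in buffer B. Complexes captured on Protein A beads, washed, KOH-eluted. Bound signal given as % of input radioactivity minus bead-only background; one-site fit.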

T1 sequence (P35968 20-764 limits assumed, change not shown, form in doubt): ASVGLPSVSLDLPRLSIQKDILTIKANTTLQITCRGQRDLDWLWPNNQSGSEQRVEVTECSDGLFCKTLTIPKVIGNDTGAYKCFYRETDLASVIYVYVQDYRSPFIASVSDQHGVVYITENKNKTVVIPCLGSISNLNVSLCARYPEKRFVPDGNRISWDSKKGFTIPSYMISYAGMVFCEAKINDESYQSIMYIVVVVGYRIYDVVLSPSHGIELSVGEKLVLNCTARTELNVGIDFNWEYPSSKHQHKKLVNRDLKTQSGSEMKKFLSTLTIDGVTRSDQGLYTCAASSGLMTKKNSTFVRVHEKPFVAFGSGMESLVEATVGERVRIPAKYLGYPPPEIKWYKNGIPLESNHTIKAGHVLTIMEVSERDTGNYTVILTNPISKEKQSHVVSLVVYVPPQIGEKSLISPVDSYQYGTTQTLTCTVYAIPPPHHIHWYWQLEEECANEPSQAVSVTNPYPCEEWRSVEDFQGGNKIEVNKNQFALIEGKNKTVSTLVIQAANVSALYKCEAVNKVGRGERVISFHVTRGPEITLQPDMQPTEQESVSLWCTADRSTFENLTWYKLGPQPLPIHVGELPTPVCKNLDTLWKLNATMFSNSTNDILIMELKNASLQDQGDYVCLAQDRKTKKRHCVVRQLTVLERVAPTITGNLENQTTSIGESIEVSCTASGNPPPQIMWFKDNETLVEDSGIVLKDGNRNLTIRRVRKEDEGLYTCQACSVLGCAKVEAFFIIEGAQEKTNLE

Binder | Binding to 1 nM KDR, % [%]
2C12 PR3 (designed binder, tag left out) VSDVPRDLEVVAATPTSLLISWRHPHFPTRYYRITYGETGGNSPVQEFTVPLQPPTATISGLKPGVDYTITGYAVTDAQNVQAPIAQISINYRT | 6
2′B9-PR4 (designed binder, tag left out) VSDVPRDLEVVAATPTSLLISWRHPHFPTRYYRITYGETGGNSPVQEFTVPLQPPTATISGLKPGVDYTITGYAVTVGPTDHELLTPISINYRT | 7
2′D5-PR4 (designed binder, tag left out) VSDVPRDLEVVAATPTSLLISWRHPHFPTRYYRITYGETGGNSPVQEFTVPLQPPTATISGLKPGVDYTITGYAVTVAWNDHMLMTPISINYRT | 11
2D12 PR3 (designed binder, tag left out) VSDVPRDLEVVAATPTSLLISWRHPHFPTRYYRITYGETGGNSPVQEFTVPLQPPTATISGLKPGVDYTITGYAVTEGWIDHEIMIPISINYRT | 14
2′B4-PR4 (designed binder, tag left out) VSDVPRDLEVVAATPTSLLISWRHPHFPTRYYRITYGETGGNSPVQEFTVPLQPPTATISGLKPGVDYTITGYAVTSGHNGHEVMTPISINYRT | 4
2′A1-PR4 (designed binder, tag left out) VSDVPRDLEVVAATPTSLLISWRHPHFPTRYYRITYGETGGNSPVQEFTVPLQPPTATISGLKPGVDYTITGYAVTSGHNDHMLMIPISINYRT | 11
2F3 PR3 (designed binder, tag left out) VSDVPRDLEVVAATPTSLLISWRHPHFPTRYYRITYGETGGNSPVQEFTVPLQPPTATISGLKPGVDYTITGYAVTLSHYGKELRTPISINYRT | 8
2G12 PR3 (designed binder, tag left out) VSDVPRDLEVVAATPTSLLISWRHPHFPTRYYRITYGETGGNSPVQEFTVPLQPPTATISGLKPGVDYTITGYAVTSGQNDHALLIPISINYRT | 6
2′C7-PR4 (designed binder, tag left out) VSDVPRDLEVVAATPTSLLISWRHPHFPTRYYRITYGETGGNSPVQEFTVPLQPPTATISGLKPGVDYTITGYAVTWDQNGHVLLTPISINYRT | 5
2H10 PR3 (designed binder, tag left out) VSDVPRDLEVVAATPTSLLISWRHPHFPTRYYRITYGETGGNSPVQEFTVPLQPPTATISGLKPGVDYTITGYAVTLAPSARELMTPISINYRT | 10
2F10 PR3 (designed binder, tag left out) VSDVPRDLEVVAATPTSLLISWRHPHFPTRYYRITYGETGGNSPVQEFTVPLQPPTATISGLKPGVDYTITGYAVTLALFDHELLTPISINYRT | 3
2G9 PR3 (designed binder, tag left out) VSDVPRDLEVVAATPTSLLISWRHPHFPTRYYRITYGETGGNSPVQEFTVPLQPPTATISGLKPGVDYTITGYAVTEIYNDHELMTPISINYRT | 9
2′A11-PR4 (designed binder, tag left out) VSDVPRDLEVVAATPTSLLISWRHPHFPTRYYRITYGETGGNSPVQEFTVPLQPPTATISGLKPGVDYTITGYAVTEDIRVLWLNTTISINYRT | 6
2H12 PR3 (designed binder, tag left out) VSDVPRDLEVVAATPTSLLISWRHPHFPTRYYRITYGETGGNSPVQEFTVPLQPPTATISGLKPGVDYTITGYAVTEGYQNHELSVPISINYRT | 10
